For one assay, the target named is TnmJ. Kind of assay: isothermal titration calorimetry. In kind it is binding, Streptomyces sp. CB03234. The settings on record: native substrate.
The target in assay [1] is TnmJ (Streptomyces sp. CB03234). The experiment in a line: crystal structure.
Assay [2] has the same target. The experiment in a line: SEC.

Turning to TNM I [compound 8], binding on TnmJ was put at a Kd of 3.4 µM. On to TnmJ (enzyme), for which the stoichiometry N in assay [1] and in assay [2] was 2 in each case.
